Patent CN106749656A (UNIV ZHENGZHOU NORMAL, dated 2017)

T1: 小鼠重组RCN3蛋白 (mouse, UniProt Q8BH97 21-328, limits assumed)
T1 construct: Recombinant mouse RCN3 used as coating antigen and in the Western blot; GST and BSA were run as control antigens; also called 小鼠RCN3蛋白; 重组小鼠RCN3蛋白
T1 sequence (looked up): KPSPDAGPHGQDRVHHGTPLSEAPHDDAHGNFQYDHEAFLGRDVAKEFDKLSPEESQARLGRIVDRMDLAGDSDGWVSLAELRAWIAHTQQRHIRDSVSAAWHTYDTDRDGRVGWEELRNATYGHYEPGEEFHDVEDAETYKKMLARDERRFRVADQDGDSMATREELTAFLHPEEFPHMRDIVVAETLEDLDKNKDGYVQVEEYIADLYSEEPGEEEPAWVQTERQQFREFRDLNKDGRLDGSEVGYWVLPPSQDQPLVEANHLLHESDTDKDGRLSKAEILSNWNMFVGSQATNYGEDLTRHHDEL

B1: 全人源抗小鼠RCN3蛋白单链ScFv抗体的噬菌体克隆 (scFv)
scFv: ELQMTQSPSSLSASVGDRVTITCQASQDITYHLNWYQQKPGKAPKLLIYDASNLVTGVPSRFSGSGSGTDFTVTISSLQPEDFATYYCQHYYNRPPTFGQGTRLEIKGGSSRSSSSGGGGSGGGGQVQLVQSGGGVVQPGRSLRLSCAASGFTFSSYGMHWVRQAPGKGLEWVAVISYDGSNKYYADSVKGRFTISRDNSKNTLYLQMNSLRAEDTAVYYCARDLGTHAFDIWGQGTMVTVSS
notes: The scFv stood on the surface of M13 phage in the assay; also called 单克隆噬菌体
B2: 全人源抗小鼠RCN3带有Fc标签的单链ScFv抗体 (Fc fusion)
scFv: B1 scFv
notes: also called ScFv-Fc抗体; 抗小鼠RCN3蛋白ScFv-Fc抗体; not shown: Fc tag from the eukaryotic expression vector pFUSERTL1

How the values were obtained:
小鼠重组RCN3蛋白 [1] = target: T1, 小鼠重组RCN3蛋白; experiment: phage ELISA, plate coated with 3 μg/mL mouse RCN3 (GST and BSA as controls), HRP anti-M13
小鼠重组RCN3蛋白 [2] = target: T1, 小鼠重组RCN3蛋白; experiment: ELISA, plate coated with 3 μg/mL mouse RCN3 (GST and BSA as controls), ScFv-Fc as first antibody, HRP goat anti-human IgG

Binder	binding result (小鼠重组RCN3蛋白 [1])	binding result (小鼠重组RCN3蛋白 [2])
B1	binds	
B2		binds
